Reference: PMC3598077 (EMBO Molecular Medicine, 2013)

Molecular target: T1, Recombinant His-RAD51 fusion protein (UniProt Q06609 1-339)
T1 sequence: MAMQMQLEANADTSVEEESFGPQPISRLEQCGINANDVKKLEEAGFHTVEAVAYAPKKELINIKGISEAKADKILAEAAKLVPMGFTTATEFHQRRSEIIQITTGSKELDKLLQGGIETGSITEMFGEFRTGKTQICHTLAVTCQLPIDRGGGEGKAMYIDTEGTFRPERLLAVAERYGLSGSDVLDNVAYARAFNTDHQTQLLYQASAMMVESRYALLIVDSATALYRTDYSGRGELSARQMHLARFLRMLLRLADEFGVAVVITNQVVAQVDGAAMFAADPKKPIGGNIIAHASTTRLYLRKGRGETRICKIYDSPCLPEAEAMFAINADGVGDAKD
Test: SPR

binding result: binds
Binder: FGGSFRTASNKEIKLSEHNIKKSKMFFKDIEEQYPT (domain or fragment) [Recombinant GST-BRC fusion protein (containing BRCA2-1005-1040, fused with GST at its N-terminal)]
